Assay results from the nanobody polyreactivity screen of Harvey et al. (2022).

Experiment: yeast display, Sf9 membrane polyspecificity reagent, FACS + sequencing; frameworks hold sequencing errors
Summary of the method: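 Synthetic nanobody libraries on Saccharomyces cerevisiae BJ5465 were galactose-induced for 36–48 hours, stained 1 hour at 4 °C with 10% biotinylated, detergent-solubilized Sf9 membrane reagent and enriched on streptavidin microbeads. FACS then separated cells into low and high (top ~1%) gates by anti-HA (expression) and streptavidin (reagent binding) fluorescence. Genes were colony-PCR amplified, MiSeq 2 × 250 sequenced and CDR-length filtered. A clone's polyreactivity label is that of its gate of origin.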

Row | Sequence | polyreactivity (PSR sort gate)
1 | QVQLVESGGGLVQAGGSLRLSCAASGTFSSNAMGWYRQAPGKERELVAAISSTGTTTYYADSVKGRFTISRDNAKNTVYLQMNSLKPEDTAVYYCAKYAYTSVHSWYYYWGQGTQVTVSS | high polyreactivity
2 | QVQLVESGGGLVQAGGSLRLSCAASGRIFDIYAMGWYRQAPGKERELVATITRSAGRTYYADSVKGRFTISRDNAKNTVYLQMNSLKPEDTAVYFCAASYWDTEPGYREYEYWGQGTQVTVSS | low polyreactivity
3 | QVQLVESGGGLVQAGGSLRLSCAASGSTFYGNAMGWSRQAPGKERELVAAIRWRGGRTYYADSVKGRFTISRDNAKNTVYLQMNSLKPEDTAVYYCNALPGVSHTQYDRVGYWGQGTQVTVSS | high polyreactivity
4 | QVQLVESGGGLVQAGGSLRLSCAASGYTFRSNTMGWYRQAPGKERELVASINQSGGRTYYADSVKGRFTISRDNAKNTVYFQMNSLKPEDTAVYYCATRGYNYYAHNYWGQGTQVTVSS | high polyreactivity
5 | QVQLVESGGGLVQAGGSLRLSCAASGSTLFLYAMGWYRQAPGKERELVAAITWSGGSTYYADSVKGRFTISRDNAKKTVYLQMNSLKPEDTAVYYCAKYGRYFWNSGVDYWGQGTQVTVSS | high polyreactivity
6 | QVQLVESGGGLVQAGGSLRLSCAASGSTFFPYAMGWYRQAPGKERELVAAITSGGRTKYADSVKGRFTISRDNAKNTVYLQMNSLKPEDTAVYYCAARGLIKEYGGPYRRFGYWGQGTQVTVSS | high polyreactivity
7 | QVQLVESGGGLVQAGGSLRLSCAASGITFYVNAMGWYRQAPGKERELVASISTGGSTNYADSVKGRFTISRDNAKNTVYLQMNSLKPEDTAVYYCAARVDYHPSLRDYWGQGTQVTVSS | low polyreactivity
8 | QVQLVESGGGLVQAGGSLRLSCAASGSIISYYAMGWYRQAPGKERELVATITSGGITYYADSVKGRFTISRDNAKNTVYLQMNSLKPEDTAVYYCNARYPHGYSSYYRFGYWGQGTQVTVSS | high polyreactivity
9 | QVQLVESGGGLVQAGGSLRLSCAASGFIFVYYAMGWYRQAPGKERELVAAISSDGSTNYADSVKGRFTISRDNAKNTVYLQMNSLKPEDTAVYYCNARYVASPSGKRRLIDVDYWGQGTQVTVSS | low polyreactivity
10 | LVHLQESGGGLVHAGGGLRLSCAASGNIFTYVIMGWYRQPPVKERELVAAITYGTITNYADSVKGPFTISRDNAKITVDLQMKCLKPEDSAEYHCAVQSPRIEPRLYYWGQGTEVTVSS | high polyreactivity
11 | QVQLVESGGRLVQAGGSLRLICAASGLTIRSYAMGWYRQAPGKERELVAAISDSGDSTYYADSVKGRFTISRDNAKNTVYFQMNSLKPEDTAVYYCAVEYSYEYEFWGQGTQVTVSS | low polyreactivity
12 | KVQLVESGGGLVQAGGSLRLSCASSGSIFSGYAMGWYRQAPGKERELVAAISRGGSTNYADSVKGRFTISRDNAKNTVYLQMNSLKPEDTAVYYCARDTEGKYVGYGRFGYWGQGTQVTVSS | low polyreactivity
13 | QDQLVESGGGLVQAGGSLRLSCAASGRIFDIYAMGWYRQAPGKERELVAAITWRGGSTYYADSVKGRFTISRDTAKNTLYLQMNSLKPEDTAVYYCAVDFITPRGSYYWGQGTQVTVSS | low polyreactivity
14 | QVQLVESGGGLVQAGGSLRLSCPASGSTISGNTMGWYRHDPGKERELVAAISFRSGRTYYADSVKGRFTISRDNAKNTGYLQMNSLIPEDTAVYYCNAEIYTYRTGRGYSRMDYWGQGSQVTVSS | high polyreactivity
15 | QVQLVESGGGLVQAGGSLRLSCSASGRIFAAYAMGWYRQAPGKERELVATITRGGSTYYADSVKGRFTISRDNAKNTVYLQMNSLKPKDTAVYYCAVKRGFTQYKPFNYWGQGTQVTVSS | high polyreactivity
16 | QVQLVESGGGLDQAGGSLRLSCAASGFIYSYAMGWYRQAPGKERELVAAIRRGGPTNYADSVKGRFSISRDNAKTTVYLPMNSRKPEDTAVYYCAADSWFRRNEYDDWGQGTQVTVAS | high polyreactivity
17 | QVQLVESGGGLVQAGGSLRLSCAASGSIFATNAMGWYRQAPGKERELVATITNSGASTSYADSVKGRFTISRDNAKNTVYLQMNSLKPEDTAVYYCNAYGYRAYGVRGYTYGYDYWGQGTQVTVSS | low polyreactivity
